The values that follow come from article PMC3176292, “Mutations in Protein-Binding Hot-Spots on the Hub Protein Smad3 Differentially Affect Its Protein Interactions and Smad3-Regulated Gene Expression” (PLoS ONE, 2011).

The labels stand for the following.
T1: Ski Smad-binding domain (amino acids 2–56) on the 3xFlag-thioredoxin scaffold (UniProt P12755 2-56)
T1 construct: Ski, amino acids 2–56; cloned into the unique RsrII site of pCI-3xFLAG-Trx; also called Ski aa2–56; TrxSki; source: HEK-293, transfected, in lysate
T1 sequence (looked up): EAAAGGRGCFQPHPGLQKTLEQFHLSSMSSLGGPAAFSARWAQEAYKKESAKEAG

T2: Flag-SARA, full length (UniProt O95405 1-1425)
T2 construct: SARA; plasmid pCMV5b-Flag-SARA; also called SARA FL; source: HEK-293, transfected, in lysate
T2 sequence (looked up): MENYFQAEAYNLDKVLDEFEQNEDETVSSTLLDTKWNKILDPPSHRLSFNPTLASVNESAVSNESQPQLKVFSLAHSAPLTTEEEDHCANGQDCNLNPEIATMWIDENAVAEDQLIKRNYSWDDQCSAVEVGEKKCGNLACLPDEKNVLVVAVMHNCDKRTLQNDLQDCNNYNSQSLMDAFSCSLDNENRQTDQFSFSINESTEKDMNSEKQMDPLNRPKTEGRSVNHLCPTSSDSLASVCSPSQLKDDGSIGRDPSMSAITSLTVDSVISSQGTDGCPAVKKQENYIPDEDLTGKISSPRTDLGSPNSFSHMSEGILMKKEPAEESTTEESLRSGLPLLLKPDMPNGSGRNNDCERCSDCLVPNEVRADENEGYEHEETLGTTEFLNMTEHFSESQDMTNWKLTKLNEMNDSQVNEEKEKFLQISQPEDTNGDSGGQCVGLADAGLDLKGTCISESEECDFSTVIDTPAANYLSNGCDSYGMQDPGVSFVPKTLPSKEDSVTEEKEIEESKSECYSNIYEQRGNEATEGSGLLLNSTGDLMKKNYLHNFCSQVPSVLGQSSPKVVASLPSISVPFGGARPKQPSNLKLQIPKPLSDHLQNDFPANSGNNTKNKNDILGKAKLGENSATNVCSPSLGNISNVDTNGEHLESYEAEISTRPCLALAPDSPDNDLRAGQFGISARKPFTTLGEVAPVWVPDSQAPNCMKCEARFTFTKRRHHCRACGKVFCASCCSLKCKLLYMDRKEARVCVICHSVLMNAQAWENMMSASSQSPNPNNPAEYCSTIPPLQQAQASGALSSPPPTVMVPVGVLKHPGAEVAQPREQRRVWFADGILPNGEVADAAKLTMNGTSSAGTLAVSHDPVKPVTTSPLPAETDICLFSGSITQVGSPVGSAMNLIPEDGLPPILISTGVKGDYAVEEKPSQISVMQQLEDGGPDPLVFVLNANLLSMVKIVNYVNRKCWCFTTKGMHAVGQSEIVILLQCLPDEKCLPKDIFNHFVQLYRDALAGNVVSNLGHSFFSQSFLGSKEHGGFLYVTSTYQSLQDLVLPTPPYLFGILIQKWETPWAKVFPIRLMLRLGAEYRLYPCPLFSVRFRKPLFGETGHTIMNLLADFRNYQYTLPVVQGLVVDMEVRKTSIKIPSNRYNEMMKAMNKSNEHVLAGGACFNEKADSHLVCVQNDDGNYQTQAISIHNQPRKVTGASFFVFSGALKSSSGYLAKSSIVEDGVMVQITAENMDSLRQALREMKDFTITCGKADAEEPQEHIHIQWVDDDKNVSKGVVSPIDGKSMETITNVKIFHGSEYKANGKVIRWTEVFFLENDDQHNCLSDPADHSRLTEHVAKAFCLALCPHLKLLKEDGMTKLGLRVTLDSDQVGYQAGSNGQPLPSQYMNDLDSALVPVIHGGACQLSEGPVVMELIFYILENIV

B1: Renilla luciferase-Smad3 S254A (natural protein, UniProt P84022 1-425, looked up)
chain: MSSILPFTPPIVKRLLGWKKGEQNGQEEKWCEKAVKSLVKKLKKTGQLDELEKAITTQNVNTKCITIPRSLDGRLQVSHRKGLPHVIYCRLWRWPDLHSHHELRAMELCEFAFNMKKDEVCVNPYHYQRVETPVLPPVLVPRHTEIPAEFPPLDDYSHSIPENTNFPAGIEPQSNIPETPPPGYLSEDGETSDHQMNHSMDAGSPNLSPNPMSPAHNNLDLQPVTYCEPAFWCSISYYELNQRVGETFHASQPAMTVDGFTDPSNSERFCLGLLSNVNRNAAVELTRRHIGRGVRLYYIGGEVFAECLSDSAIFVQSPNCNQRYGWHPATVCKIPPGCNLKIFNNQEFAALLAQSVNQGFEAVYQLTRMCTIRMSFVKGWGAEYRRQTVTSTPCWIELHLNGPLQWLDKVLTQMGSPSIRCSSVS
notes: Smad3; source: HEK-293, transfected together with constitutively active Alk5, in lysate
B2: Renilla luciferase-Smad3 Y298A (natural protein, UniProt P84022 1-425, looked up)
chain: B1 chain with A254S, Y298A
notes: as for B1
B3: Renilla luciferase-Smad3 W406A (natural protein, UniProt P84022 1-425, looked up)
chain: B1 chain with A254S, W406A
notes: as for B1
B4: Renilla luciferase-Smad3 W326A (natural protein, UniProt P84022 1-425, looked up)
chain: B1 chain with A254S, W326A
notes: as for B1
B5: Renilla luciferase-Smad3 V224A (natural protein, UniProt P84022 1-425, looked up)
chain: B1 chain with V224A, A254S
notes: as for B1
B6: Renilla luciferase-Smad3 V356R (natural protein, UniProt P84022 1-425, looked up)
chain: B1 chain with A254S, V356R
notes: as for B1
B7: Renilla luciferase-Smad3 Y226A (natural protein, UniProt P84022 1-425, looked up)
chain: B1 chain with Y226A, A254S
notes: as for B1

Changes are numbered by the printed parent chain.

For one assay, the target named is T1, Ski Smad-binding domain (amino acids …). The assay is described as follows: co-IP; LUMIER: Renilla luciferase-Smad3 and Flag-tagged partner co-expressed with constitutively active Alk5 in HEK-293; Flag protein captured from cleared lysate (TNE: 10 mM Tris-HCl pH 7.8, 150 mM NaCl, 1 mM EDTA, 1% Igepal CA-630) on anti-Flag 96-well plates, 2 h at 4 °C; co-precipitated Renilla luciferase activity, TrxGA background subtracted, percent of wild-type Smad3. Conditions: partners not purified.
In the case of B1, the “percent binding relative to wild-type Smad3” value was determined as 10%.

With B2, the “percent binding relative to wild-type Smad3” value was 271%.

With B3, the “percent binding relative to wild-type Smad3” value came to 5%.

As for B4, the “percent binding relative to wild-type Smad3” value amounted to 292%.

For the molecule B5, the “percent binding relative to wild-type Smad3” value is 524%.

With B6, the “percent binding relative to wild-type Smad3” value is 2%.

For B7, the “percent binding relative to wild-type Smad3” value worked out at 32%.

The next assay deals with T3, Flag-Smad3, full length (UniProt P84022 1-425).
T3 construct: Smad3; plasmid pCMV5-Flag-Smad3 (from J. Massagué); bait for Smad3-Smad3 association; also called Smad3 FL; source: HEK-293, transfected together with constitutively active Alk5, in lysate
The assay is described as above. To be noted: partners not purified.
As to B1, the “percent binding relative to wild-type Smad3” value was found to be 105%.

For B2, the “percent binding relative to wild-type Smad3” value is 113%.

As for B3, the “percent binding relative to wild-type Smad3” value turned out to be 564%.

For B4, the “percent binding relative to wild-type Smad3” value turned out to be 159%.

Turning to B5, the “percent binding relative to wild-type Smad3” value was 118%.

On to B6, for which the “percent binding relative to wild-type Smad3” value is 275%.

Turning to B7, the “percent binding relative to wild-type Smad3” value was determined as 161%.

The target of the next assay is T2, Flag-SARA, full length. Described as above. Conditions: partners not purified.
B1: the “percent binding relative to wild-type Smad3” value is 154%.

In the case of B2, the “percent binding relative to wild-type Smad3” value was determined as 150%.

On to B3, for which the “percent binding relative to wild-type Smad3” value was determined as 12%.

As to B4, the “percent binding relative to wild-type Smad3” value stood at 13%.

Take B5: the “percent binding relative to wild-type Smad3” value is 42%.

In the case of B6, the “percent binding relative to wild-type Smad3” value was found to be 16%.

Consider B7, for which the “percent binding relative to wild-type Smad3” value turned out to be 32%.
